From patent US20080095778A1, “Treatment Of Fungal Infections” (priority 2004, published 2008)

What was measured:
Aspergillus species = test: Antifungal activity with Mycograb antibody, summary over the Aspergillus species examined; format: cell-based
Protocol: (§1) An inoculum suspension was prepared in buffered RPMI with glutamine medium by probing colonies from a 7 day old Sabouraud plate. The suspension was adjusted to 0.09-0.11 (80% to 82% transmittance) for Aspergillus species, 0.15-0.17 (68% to 70% transmittance). The inoculum was diluted a further 1:2 when added to the antifungal agents in the assay (final inoculum (0.4×10^4 to 0.5×10^4). For AMB and Mycograb®, either alone or in combination, the endpoint was determined as the concentration to produce no growth (MIC-0). Microtitre plates were incubated at 37° C. without agitation for 48 hours for Aspergillus species. For caspofungin, voriconazole and itraconazole, either alone or in combination with Mycograb® antibody, the MIC endpoint was determined as the concentration resulting in a prominent decrease in turbidity (≧50% growth inhibition, MIC-2) compared to the growth control (Keele et al. 2001; Espinel-Ingroff 2003). The final inhibitory concentration (FIC) was calculated for each drug by dividing the MIC in the presence of the second drug by the MIC in its absence. For each combination, two fractions were produced which were summated to produce the fractional final inhibitory concentration. Synergy was defined by value of ≦0.5, indifference was defined by a value of >0.5 to <4.0, and antagonism was defined by a value of ≧4.0 (Matthews et al., 2003).

A. fumigatus = test: Broth microdilution (NCCLS M38-A) checkerboard assay, A. fumigatus; format: cell-based, Aspergillus fumigatus; details: for FIC: MIC in combination divided by MIC alone
Protocol: (§2) Stock solutions of amphotericin B (AMB, Sigma), caspofungin (Caspo), voriconazole (VOR) and itraconazole (ITZ) were prepared according to the National Committee for Clinical Laboratory Standards (M38-A) in RPMI 1640 with glutamine broth medium, buffered to pH 7.0 with […] morpholinopropanesulphonic acid (MOPS). AMB stock solutions were prepared as a 100× series in 100% dimethyl sulfoxide (DMSO) and diluted in medium to a concentration range of 0.03125 to 16 μg/ml. Caspofungin, voriconazole and itraconazole were tested at a concentration range of 0.03125 to 1024 μg/ml, and Mycograb® (NeuTec Pharma plc) at a concentration range of 0.25 to 1024 μg/ml.
(§3) Clinical isolates of Aspergillus fumigatus (2), A. flavus (1), A. terreus (1) and A. niger (1) were obtained from the Department on Microbiology, Manchester Royal Infirmary, Manchester, UK.
as §1

A. fumigatus CI2 = test: Broth microdilution (NCCLS M38-A) checkerboard assay, A. fumigatus CI2; format: cell-based, Aspergillus fumigatus; details: for FIC: MIC in combination divided by MIC alone
Protocol: as §2, §3, §1

A. niger = test: Broth microdilution (NCCLS M38-A) checkerboard assay, A. niger; format: cell-based; details: for FIC: MIC in combination divided by MIC alone
Protocol: as §2, §3, §1

A. flavus = test: Broth microdilution (NCCLS M38-A) checkerboard assay, A. flavus; format: cell-based; details: for FIC: MIC in combination divided by MIC alone
Protocol: as §2, §3, §1

A. terreus = test: Broth microdilution (NCCLS M38-A) checkerboard assay, A. terreus; format: cell-based; details: for FIC: MIC in combination divided by MIC alone
Protocol: as §2, §3, §1

[1] = Aspergillus fumigatus, agent alone, Table 3, ≧50% growth inhibition endpoint, read-out: MIC-2 of each agent, Alone
[2] = itraconazole and Mycograb combination
[3] = itraconazole and Mycograb in combination
[4] = agent alone, Table 1, no growth endpoint
[5] = agent alone, Table 2, ≧50% growth inhibition endpoint
[6] = agent alone, Table 3, ≧50% growth inhibition endpoint
[7] = agent alone, Table 4, ≧50% growth inhibition endpoint
[8] = amphotericin B and Mycograb in combination
[9] = caspofungin and Mycograb in combination
[10] = voriconazole and Mycograb in combination

## CC[C@@H]([C@H](C)O)n1ncn(-c2ccc(N3CCN(c4ccc(OC[C@@H]5CO[C@@](Cn6cncn6)(c6ccc(F)cc6F)C5)cc4)CC3)cc2)c1=O [posaconazole]
Aspergillus species; preliminary results
  Synergy with antibody specific for Aspergillus hsp90 epitope: capable of achieving similar synergistic results

## CCC(C)n1ncn(-c2ccc(N3CCN(c4ccc(OCC5COC(Cn6cncn6)(c6ccc(Cl)cc6Cl)O5)cc4)CC3)cc2)c1=O (centres unmarked) [ITZ, itraconazole]
A. fumigatus; [1]
  MIC: 0.5 µg/mL
A. fumigatus; [2]
  FICI: 0.0781
  Outcome: Synergy (Synergy was defined by value of ≦0.5)
A. fumigatus; [3]
  MIC-2 of each agent, Combination: 0.0312 µg/mL
A. fumigatus CI2; [1]
  MIC: 0.5 µg/mL
A. fumigatus CI2; [2]
  FICI: 0.2578
  Outcome: Synergy (Synergy was defined by value of ≦0.5)
A. fumigatus CI2; [3]
  MIC-2 of each agent, Combination: 0.125 µg/mL
A. niger; Aspergillus niger, agent alone, Table 3, ≧50% growth inhibition endpoint, read-out: MIC-2 of each agent, Alone
  MIC: 0.125 µg/mL
A. niger; [2]
  FICI: 0.375
  Outcome: Synergy (Synergy was defined by value of ≦0.5)
A. niger; [3]
  MIC-2 of each agent, Combination: 0.0156 µg/mL
A. flavus; Aspergillus flavus, agent alone, Table 3, ≧50% growth inhibition endpoint, read-out: MIC-2 of each agent, Alone
  MIC: 0.125 µg/mL
A. flavus; [2]
  FICI: 0.25
  Outcome: Synergy (Synergy was defined by value of ≦0.5)
A. flavus; [3]
  MIC-2 of each agent, Combination: 0.0312 µg/mL
A. terreus; Aspergillus terreus, agent alone, Table 3, ≧50% growth inhibition endpoint, read-out: MIC-2 of each agent, Alone
  MIC: 0.125 µg/mL
A. terreus; [2]
  FICI: 0.281
  Outcome: Synergy (Synergy was defined by value of ≦0.5)
A. terreus; [3]
  MIC-2 of each agent, Combination: 0.0312 µg/mL
A. terreus; itraconazole and Mycograb
  FIC: 0.25 µg/mL

B1: Mycograb: antibody specific for a fungal hsp90 stress protein epitope (SEQ ID NO: 1), comprising the sequence of SEQ ID NO: 3, expressed in E. coli (protein)
scFv: HMAEVQLVESGAEVKKPGESLRISCKGSGCIISSYWISWVRQMPGKGLEWMGKIDPGDSYINYSPSFQGHVTISADKSINTAYLQWNSLKASDTAMYYCARGGRDFGDSFDYWGQGTLVTVSSGGGGSGGGGSGGGGSDVVMTQSPSFLSAFVGDRITITCRASSGISRYLAWYQQAPGKAPKLLIYAASTLQTGVPSRFSGSGSGTEFTLTINSLQPEDFATYYCQHLNSYPLTFGGGTKVDIKRAA
modifications: Synthetically generated peptide
A. fumigatus; [4]
  MIC-0 of each agent, Alone: 512 µg/mL
A. fumigatus; [5]
  MIC-2 of each agent, Alone: 1024 µg/mL
A. fumigatus; [6]
  MIC-2 of each agent, Alone: 1024 µg/mL
A. fumigatus; [7]
  MIC-2 of each agent, Alone: 1024 µg/mL
A. fumigatus; [8]
  MIC-0 of each agent, Combination: 4 µg/mL
A. fumigatus; amphotericin B and Mycograb
  FIC: 0.01
A. fumigatus; [9]
  MIC-2 of each agent, Combination: 32 µg/mL
A. fumigatus; caspofungin and Mycograb
  FIC: 0.062
A. fumigatus; [3]
  MIC-2 of each agent, Combination: 16 µg/mL
A. fumigatus; itraconazole and Mycograb
  FIC: 0.016
A. fumigatus; [10]
  MIC-2 of each agent, Combination: 0.25 µg/mL
A. fumigatus; voriconazole and Mycograb
  FIC: 0.0002
A. fumigatus CI2; [4]
  MIC-0 of each agent, Alone: 512 µg/mL
A. fumigatus CI2; [5]
  MIC-2 of each agent, Alone: 1024 µg/mL
A. fumigatus CI2; [6]
  MIC-2 of each agent, Alone: 1024 µg/mL
A. fumigatus CI2; [7]
  MIC-2 of each agent, Alone: 1024 µg/mL
A. fumigatus CI2; [8]
  MIC-0 of each agent, Combination: 16 µg/mL
A. fumigatus CI2; amphotericin B and Mycograb
  FIC: 0.031
A. fumigatus CI2; [9]
  MIC-2 of each agent, Combination: 16 µg/mL
A. fumigatus CI2; caspofungin and Mycograb
  FIC: 0.062
A. fumigatus CI2; [3]
  MIC-2 of each agent, Combination: 8 µg/mL
A. fumigatus CI2; itraconazole and Mycograb
  FIC: 0.008
A. fumigatus CI2; [10]
  MIC-2 of each agent, Combination: 0.25 µg/mL
A. fumigatus CI2; voriconazole and Mycograb
  FIC: 0.0002
A. niger; [4]
  MIC-0 of each agent, Alone: 512 µg/mL
A. niger; [5]
  MIC-2 of each agent, Alone: 256 µg/mL
A. niger; [6]
  MIC-2 of each agent, Alone: 16 µg/mL
A. niger; [7]
  MIC-2 of each agent, Alone: 16 µg/mL
A. niger; [8]
  MIC-0 of each agent, Combination: 4 µg/mL
A. niger; amphotericin B and Mycograb
  FIC: 0.01
A. niger; [9]
  MIC-2 of each agent, Combination: 0.0625 µg/mL
A. niger; caspofungin and Mycograb
  FIC: 0.0001
A. niger; [3]
  MIC-2 of each agent, Combination: 4 µg/mL
A. niger; itraconazole and Mycograb
  FIC: 0.25
A. niger; [10]
  MIC-2 of each agent, Combination: 16 µg/mL
A. niger; voriconazole and Mycograb
  FIC: 1
A. flavus; [4]
  MIC-0 of each agent, Alone: 512 µg/mL
A. flavus; [5]
  MIC-2 of each agent, Alone: 512 µg/mL
A. flavus; [6]
  MIC-2 of each agent, Alone: 512 µg/mL
A. flavus; [7]
  MIC-2 of each agent, Alone: 512 µg/mL
A. flavus; [8]
  MIC-0 of each agent, Combination: 512 µg/mL
A. flavus; amphotericin B and Mycograb
  FIC: 1
A. flavus; [9]
  MIC-2 of each agent, Combination: 0.0625 µg/mL
A. flavus; caspofungin and Mycograb
  FIC: 0.0001
A. flavus; [3]
  MIC-2 of each agent, Combination: 0.25 µg/mL
A. flavus; itraconazole and Mycograb
  FIC: 0.0005
A. flavus; [10]
  MIC-2 of each agent, Combination: 0.25 µg/mL
A. flavus; voriconazole and Mycograb
  FIC: 0.0005
A. terreus; [4]
  MIC-0 of each agent, Alone: 512 µg/mL
A. terreus; [5]
  MIC-2 of each agent, Alone: 1024 µg/mL
A. terreus; [6]
  MIC-2 of each agent, Alone: 1024 µg/mL
A. terreus; [7]
  MIC-2 of each agent, Alone: 1024 µg/mL
A. terreus; [8]
  MIC-0 of each agent, Combination: 512 µg/mL
A. terreus; amphotericin B and Mycograb
  FIC: 1 µg/mL
A. terreus; [9]
  MIC-2 of each agent, Combination: 32 µg/mL
A. terreus; caspofungin and Mycograb
  FIC: 0.031 µg/mL
A. terreus; [3]
  MIC-2 of each agent, Combination: 32 µg/mL
A. terreus; itraconazole and Mycograb
  FIC: 0.031 µg/mL
A. terreus; [10]
  MIC-2 of each agent, Combination: 0.25 µg/mL
A. terreus; voriconazole and Mycograb
  FIC: 0.0002 µg/mL
Aspergillus species; Mycograb antibody alone, summary of Tables 1-4
  Growth inhibition by antibody on its own: able to inhibit growth of certain Aspergillus species
